The values that follow come from the DeepSol protein solubility set.

The data set can be described thus: soluble on expression in E. coli; label from the status in PepcDB or PDB records.
“MIWIVGSGTCRGQTTERAKEIIERAEVIYGSRRALELAGVVDDSRARILRSFKGDEIRRIMEEGREREVAVISTGDPMVAGLGRVLREIAEDVEIKIEPAISSVQVALARLKVDLSEVAVVDCHAKDFDAELTELLKYRHLLILADSHFPLERLGKRRVVLLENLCMEGERIREGNADSIELESDYTIIFVEREVME”: the “soluble on expression in E. coli” value was “soluble”.

For “MIYRFTIISDEVDDFVREIQIDPEATFLDFHEAILKSVGYTNDQMTSFFICDDDWEKEKEVTLEEMDDNPEMDSWIMKETTISELVEDEKQKLLYVFDYMTERCFFIELSEIITGKDMNGAKCTKKSGDAPPQTVDFEEMAAASGSLDLDENFYGDQDFDMEDFDQEGFDIGGNAGGSYEEEKFLEHHHHHH”, the “soluble on expression in E. coli” value is recorded as “soluble”.

Turning to “MKAMPIDDPIDGYVAELSRALHGPRRAKRDLIAEVRDGLIDAAEAYQAAGLDRPEAERRAVAEFGTVGEIAPGLQEELAAATGQRLGALLFLSAPRSPGT”, the “soluble on expression in E. coli” value was “not soluble”.

Turning to “MKANRSIACLLLAALPTLASAHVAEKVETLHDQALAEIPGHRGLMLTVSFKPGQVSAPHVHPGSVFVYVLEGTVQTQLEGGSVETYTVGQSWYEPANVPHLLARNPDPMKPAKLLVWELLKEGDPILKPLERGAH”, the “soluble on expression in E. coli” value is listed as “not soluble”.

Take “MKASYLETLDRIKDEHAEMSKHVNQQRSDIEKVALEKENMNRSYMTYAEVSNTLRSDLRKAEEINKRLQEFIMQSLAPQLSQDNQANCLAALEAFKTASPRENGNGAPALPPGFPPGAAGMLGMMPNMPFGMSPAMSQLFNQFASPHVNGGDGAGGSSGGASEAKKAKLEDPDDGELEIDVTNDDHPSTASNGGAANKNGRDSTNSVASSGASTPSIASNSRARQQQQPLAGLQGLEQMNFLAGFNPNLLRQASAAGGFNFLNDPHAQARLAAAIGQIGSRPAYSFKIVDGGVPTPTSFPPDAQKGPGIPTGLKKKMELNHGEVVCAATISRDNSRVYTGGKGCVKIWDVKESDISGATVVNRPPIASLDCLKENYIRSCKLFEDGNTLLIGGEASTVALWDLTTETKTLDLETDSQACYALAMSPDEKLLFACLADGNILIYDIHNKVKVGTLPGHQDGASCLDLSKDGTKLWSGGLDNSVRCWDLAQRKEVAKHDFASQVFSLGCCPNDEWVAVGMENNYVEVLSTTGKEKYQLTQHESCVLSLKFAHSGKFFISTGKDNALNAWRTPYGASLFQLKENSSVLSCDISFDDSLIVTGSGEKKATLYAVEY”: the “soluble on expression in E. coli” value is “not soluble”.

In the case of “MKATLHPYQEYSKNFILDHPYCALMLDMGLGKTLSSLTAIDELLHTFEIIENVLVIAPLSVAEKTWTDEIEKWDHLQHLTFSKVLGNPKQREEALFKKADVYLINRENVEWLVNYYQRNWPFKTVIIDELSSFKSSSAKRFKALRKVRPKMERVIGLTGTPSPNSLMDLWAQMYLLDQGERLGKTITQYRNKYFVPAQKNGHIVYSWQLIPGAEEAIYNKISDICVSMKAKDYLRLPPRTENIIELDLNPTSWKQYKELEREYVLELEGTDVVASNAATLSNKLLQLSNGAVYDENGDGREIHQEKLNALERVIEDAQGQSVLVFYQYQHDLERIQARFKQAKALNVSDGDIEKWNEGKISLLLAHPQSAGHGLNLQKGGHIIVWFGLTWSLEFYQQANARLDRQGQTQPVIIHHLVTKGTIDEQVIKALQAKEQGQSALMAAVKAKIEEYRGDKLG”, the “soluble on expression in E. coli” value was “not soluble”.

Regarding “MKATTVKENEVKDDRKLSLNEMLRKRCLQVKNTKMKNSSMPKFQYFVRLNGKTRTLNVNASDTVEQGKMQLCHNARSTRMSYGGKPLSDQITFGEYNISNNSTMDLHFRI”, the “soluble on expression in E. coli” value is “not soluble”.

For “MKAVIAKNEEQLKDAFYVREEVFVKEQNVPAEEEIDELENESEHIVVYDGEKPVGAGRWRMKDGYGKLERICVLKSHRSAGVGGIIMKALEKAAADGGASGFILNAQTQAVPFYKKHGYRVLSEKEFLDAGIPHLQMMKD”, the “soluble on expression in E. coli” value was “soluble”.

As to “MKAVQGDPNWNLVTDTYIEPNNFAELFSLLVPCHPKGEGKERTILVWKEKEFYKEENLAAFIVYGMNKAKKLPQFHKDEIPTLVRILRLCQEIGWYEEANDFMIAQGLAEFVHTSLEYETWDLLTQSVALNYLIIKYRIGELTDRDIEIWDRVKFNEKCITDCKHLLSHKEVLEFTFFYMCKRAKSLSKEQLNSDMMSLAMYCNTFVYDLYTHDLLRKYRKCTDFLSYYGPSQAVLACQRAVLSQISDRLDPLKTTHVDDYLYVMKEMMEHMTIGVMDRYGHFIGKLLSYVPFFEMIQVPQHAYYCEELLYICKGIEYKEETLRNYIFIQLHDCLPSFFRLFLKNKRYATIHDILFYWCDDEQRMSLEKKYNLSFIYEKYACG”, the “soluble on expression in E. coli” value is reported as “not soluble”.

For “MKAVSRVHITPHMHWDREWYFTTEESRILLVNNMEEILCRLEQDNEYKYYVLDGQTAILEDYFAVKPENKDRVKKQVEAGKLIIGPWYTQTDTTIVSAESIVRNLMYGMRDCLAFGEPMKIGYLPDSFGMSGQLPHIYNGFGITRTMFWRGCSERHGTDKTEFLWQSSDGSEVTAQVLPLGYAIGKYLPADENGLRKRLDSYFDVLEKASVTKEILLPNGHDQMPLQQNIFEVMDKLREIYPQRKFVMSRFEEVFEKIEAQRDNLATLKGEFIDGKYMRVHRTIGSTRMDIKIAHARIENKIVNLLEPLATLAWTLGFEYHHGLLEKMWKEILKNHAHDSIGCCSDKVHREIVARFELAEDMADNLIRFYMRKIADNMPQSDADKLVLFNLMPWPREEVINTTVRLRASQFNLRDDRGQPVPYFIRHAREIDPGLIDRQIVHYGNYDPFMEFDIQINQIVPSMGYRTLYIEANQPGNVIAAKSDAEGILENAFWQIALNEDGSLQLVDKDSGVRYDRVLQIEESSDDGDEYDYSPAKEEWVITAANAKPQCDIIHEAWQSRAVIRYDMAVPLNLSERSARQSTGRVGVVLVVTLSHNSRRIDVDINLDNQADDHRLRVLVPTPFNTDSVLADTQFGSLTRPVNDSAMNNWQQEGWKEAPVPVWNMLNYVALQEGRNGMAVFSEGLREFEVIGEEKKTFAITLLRGVGLLGKEDLLLRPGRPSGIKMPVPDSQLRGLLSCRLSLLSYTGTPTAAGVAQQARAWLTPVQCYNKIPWDVMKLNKAGFNVPESYSLLKMPPVGCLISALKKAEDRQEVILRLFNPAESATCDATVAFSREVISCSETMMDEHITTEENQGSNLSGPFLPGQSRTFSYRLA”, the “soluble on expression in E. coli” value is “not soluble”.

As for “MKCSKCGREAVYFAKYEGKYYCHKHFNEMVESKVKRTIRKYRMIKKGERIGVAVSGGKDSVVLLHLLAKLRKKFPFEIVAITIDEGIKGYRDKSIKVAKKNAELLGVEHHIYRFKDYIGFTLDETVEIMGARGERLGACSYCGVWRRWLLNKAAEELKVDKLALGLNLDDEVQMFLMNLMRGDVARLGRTGPYYEVIHEGLVPRIKPLREVPEKEIVLYAVLNNIEVDLSECPYAVEAFRAEIRDWLNEMEEKHPGTKYQLLRSYDKIFPLLAKTYAKKVKLNRCKICGQPTSGEICKACQFRLQVKERAEKLKFSLSQR”, the “soluble on expression in E. coli” value is “soluble”.

As to “MKDDPKVHLEAKELWDQFHKRGTEMVITKSGRRMFPPFKVRCSGLDKKAKYILLMDIIAADDCRYKFHNSRWMVAGKADPEMPKRMYIHPDSPATGEQWMSKVVTFHKLKLTNNISDKHGFTILNSMHKYQPRFHIVRANDILKLPYSTFRTYLFPETEFIAVTAYQNDKITQLKIDNNPFAKGFRDTGNGRR”, the “soluble on expression in E. coli” value is on record as “soluble”.

In the case of “MKDDRQKASVLAVRMIPNVDLAMCKEFSMPEGHRSIGLITSDCDDVTYTALDDATKKADIKVVYAKSFYGGAANANTKLAGEVIGIISGPNPAEVKSGLSAVVDFVENEAAFISANEDDSIAYYAHCISRTGSYLSEVAGIPEGESIAYLIAPPLEAMYALDVALKSANVELVAFYGPPSETNFGGGLLTGSQSACKAACDAFAEAVKAVAANPLGY”, the “soluble on expression in E. coli” value was “not soluble”.

In the case of “MKDVSTDAPVDSARIINGKFAFADTTKIENPVIKILSIHASKMGLEYRLPVVIENGTIKASIADVVCTEGTMLNERMQDFLLAIDAYSAACTDKPVEQIKSGFSELLKRYIEMNNDNVIGTYIQTAYQSSL”, the “soluble on expression in E. coli” value is “not soluble”.

For “MKEACSSSSHVPVSDSKYILKSELLSLLKTYNCYHEGRSFQLRHREEEGTLIIEGLLNIAWGLRRPIRLQMQDDRERVHLPSATWVPERLSYLQKEASPQDSKVPTEEPGTQPANKAEVSGDSSGALEGEEEEVPQLMRTKSDASCIIQRRSKSRAPSEAQKIRRHRFSINGHFYNHKVKSPSALSWALKLRVQELFPSTEERAPNIQHSSHSSIR”, the “soluble on expression in E. coli” value is listed as “soluble”.

As to “MKEAYAQELIDYYNQSTNDVLKRTASISENEKPRVLFLVYDQRKNSYWTPGGEFYQNNLITMAGGKTVSSDLPTGKAQINVEQAASWNPDVIITSAHTMEYPSTKVKEDVLTDEGWKEINAVKSGNVYAMPFDGESWDTLGSKYVLGLYWTAKTLHPDMYLEHHHHHH”, the “soluble on expression in E. coli” value is listed as “soluble”.

For “MKEIWLLAESESWDEAKEMLKDAIEIGFDGALVRRDFLERAEKLGRMKIVPIEDAVVKISSAEDQERALQREVVVLKFEDWKVIPLENIVAMKKSGKVIAAVDTIEDAKLALTTLERGADGIAVSGDRETLRKFYEVVKEEGERVELVRARVKEIRPLGVGERVCIDTVTLMTPGEGMLVGNQASFMFLVASESEESEYVASRPFRVNAGSVNAYLKVGDKTRYLAELKAGDEVEVVKFDGAVRKSYVGRVKIERRPLILIRAEVDGVEGSVILQNAETIKLVAPDGKHVSVAELKPGDEILVWLGKKARHFGVEVDEFIVERLEHHHHHH”, the “soluble on expression in E. coli” value was “soluble”.

Consider “MKEPLDLSKYSVRTDLAVEAHQMLQERQEEQQQGIQGVIVKEREEEGIIITKVTIDEVASESMGKKPGNYLTLEVQGIRQQDTELQQKVERIFAKEFSYFLEEVGVTKEASCLIVGLGNWNVTPDALGPIVVENVLVTRHLFQLQPESVEEGFRPVSAIRPGVMGITGIETSDVIYGIIEKTKPDFVIAIDALAARSIERVNSTIQISDTGIHPGSGVGNKRKELSKETLGIPVIAIGVPTVVDAVSITSDTIDFILKHFGREMKEGNKPSRSLLPAGFTFGEKKKLTEEDMPDEKSRNMFLGAVGTLEDEEKRKLIYEVLSPLGHNLMVTPKEVDAFIEDMANVIASGLNAALHHQIDQDNTGAYTH”, for which the “soluble on expression in E. coli” value was “not soluble”.

As for “MKERMQKTSAQAHDFPQRARTESEWYEGVQTFMWMTEDNIVEVPFDKEHLLEIILSPSNLNKAYKAVVRNNGSGGIDKMSCEQLLSWLKANKDELIISLQSGTYRPNPVRRVEIPKDNGKKRLLGIPTVVDRLVQQAINQVLTLIYERQFSKTSYGFRPQRGCHDALRKAQKIVSEGYIYVVDLDLERFFDTVSHSKLIEILSRTIKDGRVISLIHKYLRSGVINRGMFEMSTEGTPQGGPLSPLLSNIMLNELDKELERRGHPFVRYADDAMIFCKSKRAAKRVRESITLFIEGKLFLKVNHEKTVVSYVKGVKFLGYSFYVKKGDCILLVHSKSKNKMKSKLKELTSRSNGWGYEKRKQKLKDYIRGWIAYFCLAQMKRLCIETDEWLRRRIRMCIWKSWKNAKTRVANLKKCGVSEWQAYQWGNTRLGYWRVSNSPIVTFVMSNDKLRKAGYMEFMDCYLKWCPKLEHHHHHH”, the “soluble on expression in E. coli” value was “soluble”.
